Paper PMC6161111, “Design, Synthesis, In Vitro, and Initial In Vivo Evaluation of Heterobivalent Peptidic Ligands Targeting Both NPY(Y1)- and GRP-Receptors—An Improvement for Breast Cancer Imaging?” (Pharmaceuticals, 2018)
*1 amine or outer side, *2 acyl side, *3 side chain or, on linkers, in order; H or OH if unused. Where a SMILES comes first, the peptide text is derived from it. Bridges are numbered along the chain shown (N, C = ends). Roman numbers before positions name the chains, in order. [ ]: non-standard residue; d: D form. The star is where a group is joined. X1 = NC(=O)[C@H](CCCCNC(=O)CCC(C(=O)O)N1CCN(CC(=O)O)CCN(CC(=O)O)CC1)NC(=O)CCOCCOCCOCCOCCNC(=O)CN(CCCNC(=O)CCOCCOCCOCCOCCNC(=O)c1ccc(C=NOCC(=O)NCCOCCOCCOCCOCCC(=O)[*:2])cc1)CCCNC(=O)CCOCCOCCOCCOCCNC(=O)c1ccc(C=NOCC(=O)[*:1])cc1; DOTA = O=C(O)CN1CCN(CC(=O)O)CCN(CC(=O)*)CCN(CC(=O)O)CC1; Nle = CCCC[C@H](N)C(=O)O

Assays:
[1] = Determination of radiotracer lipophilicity (logD, phosphate buffer/1-octanol); type: physicochemical; conditions: phosphate buffer (0.05 M, pH 7.4) / 1-octanol, six independent experiments
Method: Determination of radiotracer lipophilicity. The heterobivalent ligands (22–26) as well as the monomeric reference compounds (27 and 28) were radiolabeled with ^68Ga as described before and 2 µL of the product solution (~65 pmol of the respective radioligand) were added to a mixture of phosphate buffer (0.05 M, pH 7.4, 800 µL) and 1-octanol (800 µL) and incubated for 5 min at ambient temperature under vigorous shaking. Both phases were separated by centrifugation and 100 µL of each phase were measured for radioactivity in a gamma-counter. […] (cpm = counts per minute), cpmw = activity in the aqueous phase [cpm]. These experiments were performed six times independently.

T-47D tumor-bearing mice = test: Ex vivo biodistribution in T-47D tumor-bearing mice; conditions: mouse, in vivo
Method: (§1) In vivo experiments. All animal experiments were performed in compliance with the German animal protection laws and protocols of the local committee (Regierungspräsidium Karlsruhe, approval number: 35-9185.81/G-206/15). 20, six week old female immunodeficient Fox Chase SCID (CB17/Icr-Prkdc^scid/IcrIcoCrl) mice with an average weight of 20 g were subcutaneously implanted with 17β-estradiol pellets (0.36 mg/60 days). 4 days later, the tumors were induced by subcutaneous inoculation of 5 × 10^6 T-47D cells into the left flank of the […]. After induction, the tumors were allowed to grow for 8–10 weeks and reached a diameter of about 0.5 cm. For imaging, the animals were anaesthetized with isoflurane and injected with 5.5–8.0 MBq of the respective radioligand ([^68Ga]24, [^68Ga]24a or [^68Ga]24b) into the lateral tail vein. Dynamic PET images were acquired over 90 min and CT images were obtained within further 30 min. After the end of the diagnostic scan, the animals were sacrificed, the organs were collected and measured in a gamma-counter.

[2] = as above; conditions: female, Fox Chase SCID (CB17/Icr-Prkdc^scid/IcrIcoCrl), mouse, in vivo, iv, total radioactivity
Method: as §1

T-47D cells = test: In vitro cell uptake (internalization) study in T-47D cells; type: cell-based, human; conditions: after 4 h, % of total added activity
Method: Cell culture. All cell lines were grown in suitable culture medium at 37 °C in a humidified CO2 (5%) atmosphere. The human breast cancer cell lines T-47D, MDA-MB-231 and MCF-7 were grown in Dulbecco’s Modified Eagle Medium (DMEM), supplemented with 10% (v/v) fetal calf serum (FCS) and 1% (v/v) L-Glutamine. For a high expression of the NPY(Y1) receptor on T-47D cells, the medium for this cell line was further supplemented with 0.15% (w/v) β-estradiol. The BT-474 and PC-3 cell lines were grown in RPMI-1640 medium, also supplemented with 10% (v/v) fetal calf serum (FCS) and 1% (v/v) L-Glutamine.
Internalization studies. Cells (T-47D, MDA-MB-231, MCF-7, BT-474 and PC-3, 1.5 × 10^6 cells per well) were seeded into 6-well plates and incubated overnight at 37 °C in a humidified CO2 (5%) atmosphere. The next day, the medium was removed and the cells were washed twice with the respective medium without supplements (ice-cold, 1 mL) and incubated with 3.7–4.0 kBq (0.37–4.0 pmol) of the respective ^68Ga-radiolabeled ligand [^68Ga]22−[^68Ga]26, [^68Ga]27 or [^68Ga]28 (in 1.5 mL medium, containing 0.5% (w/v) BSA) for defined time-points of 1, 2, 3 or 4 h at 37 °C in a humidified CO2 (5%) atmosphere. A 1000-fold excess of the respective peptide (3 or 4) was used for blocking to determine the non-specific cell uptake. At each time point, the medium was removed and the cells were washed twice with the respective medium without supplements (ice-cold, 1 mL). Cells were treated twice with 1 mL glycine buffer (ice-cold, 50 mM glycine, 100 mM NaCl, pH 2.8) for 5 min at room temperature, followed by 2 mL NaOH solution (1 M) for 10 min at 37 °C. The supernatants were collected and the radioactivity measured in a gamma counter. The internalized and surface bound activity was expressed as percentage of measured to total added activity. Each data point was generated thrice in triplicates.

## CCCC[C@H](NC(=O)[C@H](CCCNC(=N)N)NC(=O)[C@H](Cc1c[nH]c2ccccc12)NC(=O)[C@H](CCCCNC(=O)CN1CCN(CC(=O)O)CCN(CC(=O)O)CCN(CC(=O)O)CC1)NC(=O)[C@@H]1CCCN1C(=O)[C@H](CC(N)=O)NC(=O)[C@@H](N)[C@@H](C)CC)C(=O)N[C@@H](CCCNC(=N)N)C(=O)N[C@@H](Cc1ccc(O)cc1)C(N)=O [[^68Ga]28, metal not drawn, reference compound] (H-INPK(DOTA)WR[Nle]RY-NH2)
[1]
  logD: -1.98 ± 0.162

## CCCC[C@H](NC(=O)[C@H](CCCCNC(=O)CON=Cc1ccc(C(=O)NCCOCCOCCOCCOCCC(=O)NCCCN(CCCNC(=O)CCOCCOCCOCCOCCNC(=O)c2ccc(C=NOCC(=O)NCCOCCOCCOCCOCCC(=O)N[C@@H](CCC(N)=O)C(=O)N[C@@H](Cc3c[nH]c4ccccc34)C(=O)N[C@@H](C)C(=O)N[C@H](C(=O)NCC(=O)N[C@@H](Cc3c[nH]cn3)C(=O)N[C@@H](CC(C)C)C(=O)N[C@@H](CCSC)C(N)=O)C(C)C)cc2)CC(=O)NCCOCCOCCOCCOCCC(=O)N[C@@H](CCCCNC(=O)CCC(C(=O)O)N2CCN(CC(=O)O)CCN(CC(=O)O)CC2)C(N)=O)cc1)NC(=O)[C@H](CC(N)=O)NC(=O)[C@H](Cc1ccc(O)cc1)NC(=O)[C@@H]1CCCN1)C(=O)N[C@@H](CCCNC(=N)N)C(=O)N[C@@H](CCCNC(=N)N)C(=O)N[C@@H](Cc1c[nH]c2ccccc12)C(=O)N[C@H](C(N)=O)[C@@H](C)CC (some centres unmarked) [[^68Ga]24b, metal not drawn]
T-47D tumor-bearing mice
  adrenal glands uptake: 2.91 ± 1.13 ID/g in %
  blood uptake: 2.02 ± 1.34 ID/g in %
  bone uptake: 0.43 ± 0.23 ID/g in %
  brain uptake: 0.07 ± 0.04 ID/g in %
  heart uptake: 0.85 ± 0.52 ID/g in %
  kidneys uptake: 43.84 ± 25.05 ID/g in %
  large intestines uptake: 1.71 ± 0.69 ID/g in %
  liver uptake: 16.75 ± 0.85 ID/g in %
  lung uptake: 0.88 ± 0.07 ID/g in %
  muscle uptake: 0.48 ± 0.40 ID/g in %
  pancreas uptake: 8.30 ± 5.33 ID/g in %
  small intestines uptake: 1.53 ± 0.51 ID/g in %
  spleen uptake: 2.12 ± 0.49 ID/g in %
  stomach uptake: 1.35 ± 0.43 ID/g in %
  tail uptake: 1.64 ± 0.94 ID/g in %
  tumor uptake: 1.84 ± 0.32 ID/g in %
[2]; tumor-to-blood ratio (T / B)
  tissue to tissue ratio at 130 min: 0.91 ± 0.24
[2]; tumor-to-muscle ratio (T / M)
  tissue to tissue ratio at 130 min: 3.83 ± 0.8

## CCCC[C@H](NC(=O)[C@H](CCCNC(=N)N)NC(=O)[C@H](Cc1c[nH]c2ccccc12)NC(=O)[C@H](CCCCNC(=O)CON=Cc1ccc(C(=O)NCCCN(CCCNC(=O)c2ccc(C=NOCC(=O)NCCOCCOCCOCCOCCC(=O)N[C@@H](CCC(N)=O)C(=O)N[C@@H](Cc3c[nH]c4ccccc34)C(=O)N[C@@H](C)C(=O)N[C@H](C(=O)NCC(=O)N[C@@H](Cc3c[nH]cn3)C(=O)N[C@@H](CC(C)C)C(=O)N[C@@H](CCSC)C(N)=O)C(C)C)cc2)CC(=O)NCCOCCOCCOCCOCCC(=O)N[C@@H](CCCCNC(=O)CCC(C(=O)O)N2CCN(CC(=O)O)CCN(CC(=O)O)CC2)C(N)=O)cc1)NC(=O)[C@@H]1CCCN1C(=O)[C@H](CC(N)=O)NC(=O)[C@@H](N)[C@@H](C)CC)C(=O)N[C@@H](CCCNC(=N)N)C(=O)N[C@@H](Cc1ccc(O)cc1)C(N)=O (some centres unmarked) [[^68Ga]22, metal not drawn]
[1]
  logD: -1.57 ± 0.111
T-47D cells
  specific cell uptake: 47.8 ± 6.5%

## CCCC[C@H](NC(=O)[C@H](CCCNC(=N)N)NC(=O)[C@H](Cc1c[nH]c2ccccc12)NC(=O)[C@H](CCCCNC(=O)CON=Cc1ccc(C(=O)NC2CCN(CC(=O)NC3CCN(CC(=O)NCCCN(CCCNC(=O)CN4CCC(NC(=O)CN5CCC(NC(=O)c6ccc(C=NOCC(=O)NCCOCCOCCOCCOCCC(=O)N[C@@H](CCC(N)=O)C(=O)N[C@@H](Cc7c[nH]c8ccccc78)C(=O)N[C@@H](C)C(=O)N[C@H](C(=O)NCC(=O)N[C@@H](Cc7c[nH]cn7)C(=O)N[C@@H](CC(C)C)C(=O)N[C@@H](CCSC)C(N)=O)C(C)C)cc6)CC5)CC4)CC(=O)NCCOCCOCCOCCOCCC(=O)N[C@@H](CCCCNC(=O)CCC(C(=O)O)N4CCN(CC(=O)O)CCN(CC(=O)O)CC4)C(N)=O)CC3)CC2)cc1)NC(=O)[C@@H]1CCCN1C(=O)[C@H](CC(N)=O)NC(=O)[C@@H](N)[C@@H](C)CC)C(=O)N[C@@H](CCCNC(=N)N)C(=O)N[C@@H](Cc1ccc(O)cc1)C(N)=O (some centres unmarked) [[^68Ga]26, metal not drawn]
[1]
  logD: -1.52 ± 0.089
T-47D cells
  specific cell uptake: 46.4 ± 2.4%

## CCCC[C@H](NC(=O)[C@H](CCCNC(=N)N)NC(=O)[C@H](Cc1c[nH]c2ccccc12)NC(=O)[C@H](CCCCNC(=O)CON=Cc1ccc(C(=O)NCCOCCOCCOCCOCCC(=O)NCCCN(CCCNC(=O)CCOCCOCCOCCOCCNC(=O)c2ccc(C=NOCC(=O)NCCOCCOCCOCCOCCC(=O)NCC(=O)N[C@@H](CC(C)C)C(=O)N[C@@H](Cc3c[nH]cn3)C(=O)N[C@H](C(=O)N[C@@H](CCSC)C(=O)N[C@@H](Cc3c[nH]c4ccccc34)C(=O)N[C@@H](CCC(N)=O)C(=O)N[C@@H](C)C(N)=O)C(C)C)cc2)CC(=O)NCCOCCOCCOCCOCCC(=O)N[C@@H](CCCCNC(=O)CCC(C(=O)O)N2CCN(CC(=O)O)CCN(CC(=O)O)CC2)C(N)=O)cc1)NC(=O)[C@@H]1CCCN1C(=O)[C@H](CC(N)=O)NC(=O)[C@@H](N)[C@@H](C)CC)C(=O)N[C@@H](CCCNC(=N)N)C(=O)N[C@@H](Cc1ccc(O)cc1)C(N)=O (some centres unmarked) [[^68Ga]24a, metal not drawn] (I: H-INPKWR[Nle]RY-NH2 / II: GLHVMWQA-NH2; linker I:4-II:N via X1)
T-47D tumor-bearing mice
  adrenal glands uptake: 0.74 ± 0.40 ID/g in %
  blood uptake: 0.39 ± 0.37 ID/g in %
  bone uptake: 0.13 ± 0.08 ID/g in %
  brain uptake: 0.03 ± 0.02 ID/g in %
  heart uptake: 0.18 ± 0.14 ID/g in %
  kidneys uptake: 29.72 ± 10.33 ID/g in %
  large intestines uptake: 0.24 ± 0.19 ID/g in %
  liver uptake: 5.54 ± 0.31 ID/g in %
  lung uptake: 0.28 ± 0.04 ID/g in %
  muscle uptake: 0.26 ± 0.40 ID/g in %
  pancreas uptake: 0.15 ± 0.08 ID/g in %
  small intestines uptake: 0.43 ± 0.37 ID/g in %
  spleen uptake: 0.49 ± 0.14 ID/g in %
  stomach uptake: 0.39 ± 0.41 ID/g in %
  tail uptake: 0.46 ± 0.41 ID/g in %
  tumor uptake: 0.21 ± 0.15 ID/g in %
[2]; tumor-to-blood ratio (T / B)
  tissue to tissue ratio at 130 min: 0.5 ± 0.47
[2]; tumor-to-muscle ratio (T / M)
  tissue to tissue ratio at 130 min: 1.07 ± 1.14

## CCCC[C@H](NC(=O)[C@H](CCCNC(=N)N)NC(=O)[C@H](Cc1c[nH]c2ccccc12)NC(=O)[C@H](CCCCNC(=O)CON=Cc1ccc(C(=O)NCCOCCOCC(=O)NCCCN(CCCNC(=O)COCCOCCNC(=O)c2ccc(C=NOCC(=O)NCCOCCOCCOCCOCCC(=O)N[C@@H](CCC(N)=O)C(=O)N[C@@H](Cc3c[nH]c4ccccc34)C(=O)N[C@@H](C)C(=O)N[C@H](C(=O)NCC(=O)N[C@@H](Cc3c[nH]cn3)C(=O)N[C@@H](CC(C)C)C(=O)N[C@@H](CCSC)C(N)=O)C(C)C)cc2)CC(=O)NCCOCCOCCOCCOCCC(=O)N[C@@H](CCCCNC(=O)CCC(C(=O)O)N2CCN(CC(=O)O)CCN(CC(=O)O)CC2)C(N)=O)cc1)NC(=O)[C@@H]1CCCN1C(=O)[C@H](CC(N)=O)NC(=O)[C@@H](N)[C@@H](C)CC)C(=O)N[C@@H](CCCNC(=N)N)C(=O)N[C@@H](Cc1ccc(O)cc1)C(N)=O (some centres unmarked) [[^68Ga]23, metal not drawn]
[1]
  logD: -1.53 ± 0.109
T-47D cells
  specific cell uptake: 45.8 ± 2.9%

## CSCC[C@H](NC(=O)[C@H](CC(C)C)NC(=O)[C@H](Cc1c[nH]cn1)NC(=O)CNC(=O)[C@@H](NC(=O)[C@H](C)NC(=O)[C@H](Cc1c[nH]c2ccccc12)NC(=O)[C@H](CCC(N)=O)NC(=O)CCOCCOCCOCCOCCNC(=O)CN1CCN(CC(=O)O)CCN(CC(=O)O)CCN(CC(=O)O)CC1)C(C)C)C(N)=O [[^68Ga]27, metal not drawn, reference compound]
[1]
  logD: -1.86 ± 0.054
